B2: P. thracensis MukE (natural protein, Photorhabdus thracensis)
chain: MSSTHIEQFMPVKLAQALANSLFPELDSQLRAGRHIGIDDLDNHAFLMDFQEQLEEFYARYNVELIRAPEGFFYLRPRSTTLIPRSVLSELDMMVGKILCYLYLSPERLANQGIFTSQELYEELISLADEGKLMKFVNQRSSGSDLDKQKLQEKVRTTLNRLRRLGMVYFLPNNNNKFTITEAVFRFGADVRSGDDPREIQLRMIRDGEAMPVEGSLSLDDSENDETPDNSAEGAGDEQP
notes: MukE, KITE subunit of MukBEF, Photorhabdus thracensis; also called KITE protein MukE; source: E. coli BL21-Gold(DE3), co-expressed with MukB and MukF (pFB403) or with MukF (pFB486); co-purified with MukB

Legend:
Assay in all cases: cryo-EM structure; MukB^EQ2E4F2–AcpP2 and MukB^EQ2–AcpP2 at 10 μM each, 80-bp matS DNA and MatP2; buffer H30 with 1 mM ATP, 2 mM MgCl2, 0.05% β-octyl glucoside; MatP/DNA/ATP-bound and apo particles from the same sample
P. thracensis MukE = target: B2; conditions: both partners purified
[1] = target: T1, P. thracensis MukB(E1407Q) (Photorhabdus thracensis, UniProt A0A0F7LRY2 1-1482, E1407Q); conditions: both partners purified
T1 construct: MukB, SMC subunit of MukBEF, Photorhabdus thracensis, with E1407Q (slows ATP hydrolysis); Two copies in each MukBEF monomer (kappa-MukB and nu-MukB); also called MukB^EQ; kappa-MukB; source: E. coli BL21-Gold(DE3), pFB485, produced at 22°C; purified alone or with MukEF after mixing of cell pellets (Ni-NTA, hSENP1 elution, Q, Superose 6); not shown: His6-SUMO, N-terminal, cleaved

[2] = target: the molecule itself

B1: P. thracensis MatP (natural protein, Photorhabdus thracensis)
chain: MKYQQLENLECGWKWAYLIRKHQEGEPITKYIENSAAHAAVDKLIKLESEPVRVLEWIEQHMNPDLFNRMKQTIRARRKRHFNAEHQHTRKKSIDLDFPVWHRLSALSQRRGNTLSETIVQLIEDAERKEKYANQMSSLKHDLEAILGKNE
notes: cloned without tag; the C-terminal tetramerization tail is not visible; also called MatP2; source: E. coli BL21-Gold(DE3), pFB469, purified (HisTrap, Q flowthrough, SP)
- binding result (P. thracensis MukE): binds
- binding result [1]: binds
- binding result [2]: binds

Binder: B2
- binding result [2]: binds

Reference: article PMC8669397, “Cryo-EM structure of MukBEF reveals DNA loop entrapment at chromosomal unloading sites” (Molecular Cell, 2021)
